Two molecules from patent publication US20130280736A1 (MOUNT SINAI HOSPITAL, published 2013) can be followed below.

In experiment [1] the target is T1, prolyl-4-hydroxylase 2 (PHD2) (human, UniProt Q9GZT9 2-426, limits assumed).
T1 construct: Endogenous protein in human placental tissues
The experiment in a line: preliminary experiments, method not described.

A further experiment concerns the target HIF-1αP402R-P564R. The experiment in a line: Western blot of lysates of transfected JEG3 cells, β-actin as loading control. The protocol:
Thus, the antibodies may be useful in predicting the severity of preeclampsia. The monoclonal antibodies were affinity purified, their IgG isotype was determined and their specificity validated (see Table 2 and FIGS. 7 and 8). The antibodies were validated using the following strategy. […] Following transfection with the various HIF-1α constructs, JEG-3 choriocarcinoma and HEK293 cells were cultured with proteosomal inhibitor MG-132 to prevent HIF degradation and Western blot and immunofluorescence analyses were used to establish the specificity and utility of the various clones. Validation experiments were run in parallel using both purified and non-purified clones to rule out potential changes in antibody performance following purification. The Western blot results unequivocally indicate that clones 1H1, 6H4 and 5A5 recognize HIF-P402^OH; clone 6A9 recognizes HIF-P564^OH; clone 7D6 recognizes both HIF-P402^OH and HIF-P64^OH; and clone 7E3 is excellent to detect total HIF-1α. […] Immunofluorescence analysis was conducted in cells and tissue sections.
In general terms: Immunoblotting shows a protein as a band on a membrane.

T1 sequence (Q9GZT9 2-426 limits assumed): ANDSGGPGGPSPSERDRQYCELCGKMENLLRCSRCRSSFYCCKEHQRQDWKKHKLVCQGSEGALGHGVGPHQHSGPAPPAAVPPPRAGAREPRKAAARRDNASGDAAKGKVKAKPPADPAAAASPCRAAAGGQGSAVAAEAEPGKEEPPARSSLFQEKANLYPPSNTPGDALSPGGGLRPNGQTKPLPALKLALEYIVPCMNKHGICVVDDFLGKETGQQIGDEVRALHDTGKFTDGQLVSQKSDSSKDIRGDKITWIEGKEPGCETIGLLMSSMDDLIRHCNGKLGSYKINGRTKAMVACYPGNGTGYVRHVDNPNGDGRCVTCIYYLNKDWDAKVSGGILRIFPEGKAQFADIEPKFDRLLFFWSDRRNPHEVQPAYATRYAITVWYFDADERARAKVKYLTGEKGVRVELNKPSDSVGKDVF
Chain of HIF-1αP402R-P564R (chain, as listed by the source P402R P564R P402R P564R limits assumed): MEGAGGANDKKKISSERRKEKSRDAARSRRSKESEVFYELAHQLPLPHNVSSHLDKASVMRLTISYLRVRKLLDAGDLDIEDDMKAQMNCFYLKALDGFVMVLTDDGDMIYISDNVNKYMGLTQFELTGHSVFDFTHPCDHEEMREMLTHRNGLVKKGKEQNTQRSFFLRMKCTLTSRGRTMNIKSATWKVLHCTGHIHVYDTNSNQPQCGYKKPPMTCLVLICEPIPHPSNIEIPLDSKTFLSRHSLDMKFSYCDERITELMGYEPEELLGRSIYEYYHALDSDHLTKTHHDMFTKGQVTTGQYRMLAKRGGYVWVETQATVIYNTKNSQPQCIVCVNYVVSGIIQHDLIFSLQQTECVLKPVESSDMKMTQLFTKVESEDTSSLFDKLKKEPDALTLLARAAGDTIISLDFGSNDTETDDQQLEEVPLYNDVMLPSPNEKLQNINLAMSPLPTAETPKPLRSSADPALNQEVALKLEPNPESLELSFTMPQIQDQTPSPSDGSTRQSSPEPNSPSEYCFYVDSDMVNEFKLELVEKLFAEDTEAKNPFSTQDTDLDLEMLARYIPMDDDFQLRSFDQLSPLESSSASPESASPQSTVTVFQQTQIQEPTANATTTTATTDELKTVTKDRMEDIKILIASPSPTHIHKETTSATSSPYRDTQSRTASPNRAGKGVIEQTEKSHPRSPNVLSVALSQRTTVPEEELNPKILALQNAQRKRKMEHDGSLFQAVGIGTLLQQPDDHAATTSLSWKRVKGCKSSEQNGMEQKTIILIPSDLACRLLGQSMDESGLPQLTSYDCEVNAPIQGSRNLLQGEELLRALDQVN

B1: prolyl-4-hydroxylase 3 (PHD3) (enzyme, human, UniProt Q9H6Z9 1-239, looked up)
chain: MPLGHIMRLDLEKIALEYIVPCLHEVGFCYLDNFLGEVVGDCVLERVKQLHCTGALRDGQLAGPRAGVSKRHLRGDQITWIGGNEEGCEAISFLLSLIDRLVLYCGSRLGKYYVKERSKAMVACYPGNGTGYVRHVDNPNGDGRCITCIYYLNKNWDAKLHGGILRIFPEGKSFIADVEPIFDRLLFFWSDRRNPHEVQPSYATRYAMTVWYFDAEERAEAKKKFRNLTRKTESALTED
notes: Endogenous protein in human placental tissues; the method of the preliminary experiment is not described
Consider B1, for which the binding result in experiment [1] was “binds”.

B2: monoclonal antibody clone 6A9 (antibody, V domains shown)
VH: DVQLVESGGGLVQPGGSRKLSCAASGFTFSSFGMHWVRQAPEKGLEWVAFISSGSHTIFYADTVKGRFTISRDNPKNTLFLQMTSLRSEDTAMYYCTRDYNAYWGQGTLVTVSA
VL: DVLMTQTPLSLPVSLGDQASISCRSSQSIVHSNGNTYLEWYLQKPGQSPKLLIYKVSNRFSGVPDRFSGSGSGTDFTLKISRVEAEDLGVYYCFQGTHVPLTFGAGTKLEL
notes: also called anti-HIF-1αP564^OH
Turning to B2, the binding result with HIF-1αP402R-P564R is on record as “no binding”.
